Source: article PMC2873526

Tests used:
histone H3 = histone H3 (UniProt P68432); assay: fluorescence spectroscopy (acrylodan-labelled PfNapS titrated with histone); settings: read off a plot
[1] = target: PfNapS residues 29-221 (crystallised construct) (Plasmodium falciparum); assay: crystal structure; hanging drop vapour diffusion at 20°C, 0.2 M di-ammonium tartrate, 20% PEG 3350; space group P212121, three dimers in the asymmetric unit; Se-SAD at 3.2 Å, native data to 2.8 Å

stoichiometry N [1]	Substance	response (histone H3; Histone H3 5 microgram)	response (histone H3; Histone H3 10 microgram)	response (histone H3; Histone H3 15 microgram)	response (histone H3; Histone H3 20 microgram)	response (histone H3; Histone H3 25 microgram)	response (histone H3; Histone H3 30 microgram)
	PfNapS labelled with acrylodan (PfNapS^dye) C47A	0.55	0.56	0.6	0.61	0.64	0.63
2	PfNapS residues 29-221 (crystallised construct) (domain or fragment)						
